Article PMC3601957, “Structural Basis of Rap Phosphatase Inhibition by Phr Peptides” (PLoS Biology, 2013)
No end group written: not given here.

Columns and labels:
RapF^E303A [1] = molecular target: T1, RapF^E303A (Bacillus subtilis, UniProt P71002, E303A); assay: Gel shift (native PAGE) titration, apparent Kd, RapF^E303A; format: binding, B. subtilis
T1 construct: 6xHis (N, cleaved yes); made in house; host or cells: Escherichia coli BL21 RIL
Procedure: (§1) The formation of complexes was analyzed by native polyacrylamide gel electrophoresis (Native-PAGE), similarly to that described by Salinas et al.. Briefly, mixtures of RapF (WT and mutants), ComA (10 µM of each protein), or Phr peptides (0.5 mM), as indicated, were incubated in buffer A (200 mM NaCl, 50 mM Tris-HCl [pH 8.0]) at room temperature for 30 min, separated by Native-PAGE and visualized by Coomassie blue staining. The peptide binding constants for RapF, RapF^D194A, RapF^N227A, RapF^E303K, and RapF^E303A were calculated following the same approach. Reaction mixtures containing 20 µg of protein and peptide concentrations ranging from 50 nM to 1.2 mM in 20 µl of buffer A were incubated for 15 min at room temperature. Reactions were separated in 8% acrylamide native gel (100 V, 4°C, 2 h) and visualized by Coomassie blue staining. Free protein was quantified using the Multigauge V2.1 software (Fujifilm) and the fraction of bound protein was estimated by subtracting free protein from the input protein. Data were plotted as a fraction of the Phr bound protein versus the Phr concentration, and were analyzed by the Graphpad prism software. The midpoint of the transition was taken as the apparent Kd. To calculate the Kd values, at least three independent experiments were analyzed.

RapF^D194A [2] = molecular target: T2, RapF^D194A (Bacillus subtilis, UniProt P71002, D194A); assay: Gel shift (native PAGE) titration, apparent Kd, RapF^D194A; format: binding, B. subtilis
T2 construct: 6xHis (N, cleaved yes); made in house; host or cells: Escherichia coli BL21 RIL
Procedure: as §1

RapF [3] = molecular target: T3, RapF (Bacillus subtilis, UniProt P71002); format: binding, B. subtilis; details: wild-type RapF, at 12 µM PhrF; native PAGE titration
T3 construct: 6xHis (N, cleaved yes); made in house; host or cells: Escherichia coli BL21 RIL
Procedure: as §1

RapF^N227A [4] = molecular target: T4, RapF^N227A (Bacillus subtilis, UniProt P71002, N227A); assay: Gel shift (native PAGE) titration, apparent Kd, RapF^N227A; format: binding, B. subtilis
T4 construct: 6xHis (N, cleaved yes); made in house; host or cells: Escherichia coli BL21 RIL
Procedure: as §1

RapF [5] = molecular target: T5, RapF (B. subtilis, UniProt P71002 1-381); assay: native gel or EMSA; Native-PAGE, Coomassie stained; RapF (WT or mutant) and ComA 10 µM each, Phr peptides 0.5 mM; buffer A (200 mM NaCl, 50 mM Tris-HCl pH 8.0), room temperature, 30 min; details: both partners purified
T5 construct: RapF of Bacillus subtilis, amplified from genomic DNA and cloned in pPROEX-HTa; The text speaks of residues up to Val381, which fits the whole protein; also called wild-type RapF; native RapF; source: E. coli BL21 RIL, purified (HisTrap, TEV digestion, Superdex 200); not shown: His6, N-terminal, cleaved
T5 sequence: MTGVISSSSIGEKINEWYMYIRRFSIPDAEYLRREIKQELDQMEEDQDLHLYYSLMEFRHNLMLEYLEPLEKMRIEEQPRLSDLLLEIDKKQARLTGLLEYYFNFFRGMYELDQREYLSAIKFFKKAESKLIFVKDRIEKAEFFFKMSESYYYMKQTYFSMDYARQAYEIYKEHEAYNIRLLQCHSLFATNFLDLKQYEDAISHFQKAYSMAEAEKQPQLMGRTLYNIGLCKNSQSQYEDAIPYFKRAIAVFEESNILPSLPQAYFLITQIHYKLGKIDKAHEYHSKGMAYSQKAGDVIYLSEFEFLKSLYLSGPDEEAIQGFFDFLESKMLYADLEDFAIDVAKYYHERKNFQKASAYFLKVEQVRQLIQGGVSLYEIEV

RapF^E303A [6] = molecular target: T6, RapF^E303A (B. subtilis, UniProt P71002 1-381, E303A); assay: as above; details: both partners purified
T6 construct: RapF of Bacillus subtilis with Glu303 changed to Ala, made from pPROEX-RapF by site-directed mutagenesis; Same construct as m1 with the point mutation; also called RapF Glu303Ala; source: E. coli BL21 RIL, purified as native RapF; not shown: His6, N-terminal, cleaved
T6 sequence: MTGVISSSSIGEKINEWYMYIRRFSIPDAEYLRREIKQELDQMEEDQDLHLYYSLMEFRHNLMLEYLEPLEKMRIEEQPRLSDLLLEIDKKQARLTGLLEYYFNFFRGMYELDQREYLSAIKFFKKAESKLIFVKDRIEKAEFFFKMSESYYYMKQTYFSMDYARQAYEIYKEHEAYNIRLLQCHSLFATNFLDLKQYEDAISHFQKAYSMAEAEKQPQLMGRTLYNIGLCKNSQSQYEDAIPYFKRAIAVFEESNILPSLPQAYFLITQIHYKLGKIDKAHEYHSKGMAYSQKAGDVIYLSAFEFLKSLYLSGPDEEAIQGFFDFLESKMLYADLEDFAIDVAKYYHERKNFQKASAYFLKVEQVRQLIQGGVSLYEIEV

RapF^N227A [7] = molecular target: T7, RapF^N227A (B. subtilis, UniProt P71002 1-381, N227A); assay: as above; details: both partners purified
T7 construct: RapF of Bacillus subtilis with Asn227 changed to Ala, made from pPROEX-RapF by site-directed mutagenesis; Same construct as m1 with the point mutation; also called RapF Asn227 to Ala mutant; RapF^N277A (misprint in the text); source: E. coli BL21 RIL, purified as native RapF; not shown: His6, N-terminal, cleaved
T7 sequence: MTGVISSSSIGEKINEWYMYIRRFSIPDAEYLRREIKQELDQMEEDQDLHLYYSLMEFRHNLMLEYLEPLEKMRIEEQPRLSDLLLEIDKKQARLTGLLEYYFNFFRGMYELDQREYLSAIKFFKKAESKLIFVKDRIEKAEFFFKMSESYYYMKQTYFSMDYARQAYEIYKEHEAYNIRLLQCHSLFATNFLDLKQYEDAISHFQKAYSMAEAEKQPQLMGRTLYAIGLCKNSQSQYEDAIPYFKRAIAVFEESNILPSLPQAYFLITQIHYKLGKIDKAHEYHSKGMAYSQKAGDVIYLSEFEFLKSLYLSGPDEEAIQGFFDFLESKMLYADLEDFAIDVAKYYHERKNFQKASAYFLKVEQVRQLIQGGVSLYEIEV

RapF^D194A [8] = molecular target: T8, RapF^D194A (B. subtilis, UniProt P71002 1-381, D194A); assay: as above; details: both partners purified
T8 construct: RapF of Bacillus subtilis with Asp194 changed to Ala, made from pPROEX-RapF by site-directed mutagenesis; Same construct as m1 with the point mutation; also called RapF Asp194Ala; source: E. coli BL21 RIL, purified as native RapF; not shown: His6, N-terminal, cleaved
T8 sequence: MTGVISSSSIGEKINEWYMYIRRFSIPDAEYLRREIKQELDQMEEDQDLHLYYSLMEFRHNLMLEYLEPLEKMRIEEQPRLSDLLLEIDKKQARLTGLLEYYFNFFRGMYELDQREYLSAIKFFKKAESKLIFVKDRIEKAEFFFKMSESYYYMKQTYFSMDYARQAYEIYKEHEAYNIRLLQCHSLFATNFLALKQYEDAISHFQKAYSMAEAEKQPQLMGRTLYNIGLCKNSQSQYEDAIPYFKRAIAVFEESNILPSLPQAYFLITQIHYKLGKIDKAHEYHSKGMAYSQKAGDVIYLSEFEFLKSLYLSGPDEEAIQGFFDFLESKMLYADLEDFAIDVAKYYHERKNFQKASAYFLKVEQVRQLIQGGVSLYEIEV

RapF^E303K = molecular target: T9, RapF^E303K (B. subtilis, UniProt P71002 1-381, E303K); assay: as above; details: both partners purified
T9 construct: RapF of Bacillus subtilis with Glu303 changed to Lys, made from pPROEX-RapF by site-directed mutagenesis; Same construct as m1 with the point mutation; also called RapF Glu303Lys; source: E. coli BL21 RIL, purified as native RapF; not shown: His6, N-terminal, cleaved
T9 sequence: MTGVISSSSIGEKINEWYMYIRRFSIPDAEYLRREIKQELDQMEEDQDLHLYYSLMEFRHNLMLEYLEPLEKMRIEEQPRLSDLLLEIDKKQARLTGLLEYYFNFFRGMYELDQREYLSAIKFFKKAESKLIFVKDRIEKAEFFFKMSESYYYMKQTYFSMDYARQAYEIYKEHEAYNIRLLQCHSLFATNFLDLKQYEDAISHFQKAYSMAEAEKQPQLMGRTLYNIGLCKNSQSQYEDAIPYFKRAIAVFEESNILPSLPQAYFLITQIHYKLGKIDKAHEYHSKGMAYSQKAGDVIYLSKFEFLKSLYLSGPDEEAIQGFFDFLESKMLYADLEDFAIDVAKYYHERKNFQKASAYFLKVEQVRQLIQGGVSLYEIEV

ERGMT [PhrC]
Kd (RapF^E303A [1]): > 1200 µM

QRGMI [PhrF]
Kd (RapF^D194A [2]): > 1200 µM | RapF present in the free form (RapF [3]): less than 30% | Kd (RapF^N227A [4]): > 1200 µM

B1: ComA (natural protein, B. subtilis, UniProt P14204 1-214, looked up)
chain: MKKILVIDDHPAVMEGTKTILETDSNLSVDCLSPEPSEQFIKQHDFSSYDLILMDLNLGGEVNGMELSKQILQENPHCKIIVYTGYEVEDYFEEAIRAGLHGAISKTESKEKITQYIYHVLNGEILVDFAYFKQLMTQQKTKPAPSSQKEQDVLTPRECLILQEVEKGFTNQEIADALHLSKRSIEYSLTSIFNKLNVGSRTEAVLIAKSDGVL
notes: also called RR ComA; full-length ComA; source: E. coli BL21 RIL, purified (HisTrap, TEV digestion, Superdex 200); not shown: His6, N-terminal, cleaved
binding result (RapF [5]): binds | binding result (RapF^E303A [6]): binds | binding result (RapF^N227A [7]): binds | binding result (RapF^D194A [8]): binds | binding result (RapF^E303K): binds
